Results published in the supplement of paper PMC10567573.
± gives the standard deviation.

Assay: protein stability index of a GFP-peptide fusion (GPS, HEK-293T) (PSI 1-6); higher = more stable
Conditions: c terminus: a fixed tail appended
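Note: 24-mer peptide tiles fused after GFP, lentivirally expressed, FACS-sorted into six equal bins by GFP/DsRed ratio, decoded by Illumina sequencing, PSI is the read-weighted mean bin number.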

Sequence	protein stability index (treatment: DMSO)	protein stability index (treatment: MLN4924 1 uM, 8 h)
EPLRILSKYHRFISFTLYLIGFCM [CDS2]	1.95 ± 0.32	1.96 ± 0.16
RSEEAVQVLIKHSADVNARDKNWQ [ANKRD44]	4.17 ± 0.22	4.44 ± 0.33
SNDGARRQFEFYLEEMILPLMVAS [BTBD10]	2.25 ± 0.078	2.2 ± 0.073
KEVPVVHTETKTITYESSQVDPGT [EPB41L3]	5.33 ± 0.42	5.2 ± 0.25
KEDALLYQSKGYNDDYYEESYFTT [EMD]	4.2 ± 0.2	4.21 ± 0.18
CKVFGIHKACEVAPLQSVFQGQKT [TRIM63]	2.81 ± 0.26	2.96 ± 0.39
QGVISQLEDTCKTIEECCRKQKQE [TRIM55]	5.2 ± 0.29	5.34 ± 0.31
MLERIKHEKTVDIYGHVTLMRAQR [PTPRD]	1.73 ± 0.22	2.16 ± 0.38
VFVGNQLIPQPLDSEEDEKMEEDI [PCMTD1]	4.99 ± 0.2	5.07 ± 0.22
VCSVRGGEGRSRGSANDYKDTLGK [KRT71]	4.68 ± 0.32	4.79 ± 0.18
DRVLQWERIDCQGIPPSSKDKLGV [KLHDC2]	4.14 ± 0.36	3.99 ± 0.07
SLPASSYSQDPVYANGGLNYSYRG [NOL4L]	3.44 ± 0.12	3.62 ± 0.15
STTEWNDETLYQEFNGLKKMNPKL [CHIT1]	4.2 ± 0.2	4.54 ± 0.2
RTVGFEEQASAFQEQEIDGKSLLL [SAMD13]	4.55 ± 0.2	4.85 ± 0.18
WTPLHLACYFGHRQVVQDLLKAGA [OSBPL1A]	2.61 ± 0.6	2.64 ± 0.48
KYMPHLCQDSSGEVSCQCQLHPPR	2.76 ± 0.58	3.6 ± 0.9
EEEEEEEEEEDDLSELPPLEDMGQ [FKBP8]	5.37 ± 0.3	5.63 ± 0.12
GAERKAALCELLEKETQIIASIGR [IQUB]	3.21 ± 0.61	3.2 ± 0.2
ENLDEAREQKEKSPPDQPAVPHPP [ADD1]	5.61 ± 0.15	5.66 ± 0.28
LNRATQSIERSHRIATETDQIGSE [VTI1B]	5.44 ± 0.32	5.34 ± 0.11
QVYKETRLFLDGEEEKEWAFEESK [AASDHPPT]	4.56 ± 0.26	4.74 ± 0.15
KKNGLYLSLVLGNVNVTLLSKQAK [TMEM120A]	2.51 ± 0.64	2.57 ± 0.35
NKCSVYPLTFDKNENMAAKKKSVA [GNB5]	4.09 ± 0.16	4.39 ± 0.48

Sequence	protein stability index (treatment: DMSO)	protein stability index (treatment: MLN4924 1 uM, 8 h)
SEEAPGGTELIQTPLASSTDHQTP [HDAC6]	5.49 ± 0.4	5.51 ± 0.34
MDQLQGLGSDYEQPLEVKNNSNLQ [CDC25A]	5.09 ± 0.17	4.85 ± 0.18
LIQPQDQSCWAFLPDLCLCRVFWW [FBXO39]	2.88 ± 0.78	2.9 ± 0.55
CHECGKKFSQNSHLIKHRRTHTGE [ZNF75A]	5.19 ± 0.29	4.72 ± 0.25
LLWAKFTNSDTPTSFNHMDSDKLS [TOR1AIP2]	2.45 ± 0.3	2.54 ± 0.35
SQPAVELVSGSQSALGPPPAASNS [CLINT1]	5.04 ± 0.31	5.21 ± 0.33
DGIRGKVGHARGLHAWQINWPARQ [SPSB4]	2.8 ± 0.19	2.67 ± 0.31
PSSPGRFTKETTQKNFNNLYGTKG [TRIM29]	4.2 ± 0.27	4.37 ± 0.085
DIAAGEELLYDYGDRSKASIEAHP [KMT5A]	5.09 ± 0.2	5.28 ± 0.19
APGIGPPEPWPGGCTGDEAESRGH [MYCL]	4.97 ± 0.55	5.51 ± 0.23
CAIQASLNQGSVFQEYDTDCEVFR [ZNF449]	2.79 ± 0.82	2.67 ± 0.48
CRFNQDPEAVDEDRSTEPDRLQVF [ATE1]	4.54 ± 0.18	4.55 ± 0.2
LEQQNQVLETKWELLQQLDLNNCK [KRT71]	4.21 ± 0.21	4.4 ± 0.27
GCILQWKKIYCRICMAQIAYSGNT [ZBED1]	2.23 ± 0.81	2.28 ± 0.76
AVVSQMDQEQGSSFQMSEGSEAAV [FAM189A2]	5.46 ± 0.29	5.44 ± 0.17
PYVCHAELNAIMNKNSTDVKGCSM [DCTD]	3.41 ± 0.22	3.43 ± 0.33
PAHLYFQAHGSEGLTFQGLLPLTE [PLEKHN1]	2.85 ± 0.045	2.9 ± 0.083
EKDERQRTTKPMAQRSAHCSRPSG [CSNK1G1]	5.12 ± 0.11	4.98 ± 0.29
PQSPDFLDITNPKAVLENALRNFA [UFD1]	2.86 ± 0.35	2.55 ± 0.57
LTSLLACLPAGPRVYFLKGGYETF [DUSP5]	2.34 ± 0.42	2.36 ± 0.47
APAPAPASSGQHHDFLSDLFSDDY [CEBPB]	5.13 ± 0.29	5.14 ± 0.16
QQIQGLISSIEAQLSELRSEMECQ [KRT13]	3.6 ± 0.14	3.44 ± 0.5
FTQNQIEVLENVFRVNCYPGIDIR [HESX1]	2.42 ± 0.4	2.14 ± 0.68

Sequence	protein stability index (treatment: DMSO)	protein stability index (treatment: MLN4924 1 uM, 8 h)
PSVRKKAGSFSRRLIKRFSFKSKP [C2CD2L]	3.34 ± 0.56	3.35 ± 0.31
QPPQSQAQVPPAAPHHHHHHSHSG [PLK2]	4.71 ± 0.2	4.64 ± 0.13
TPPTPAPTSGIVGALMEVMQKRSK [WASL]	4.55 ± 0.12	4.65 ± 0.25
GRLGKQCRERWHNHLNPEVKKSCW [MYBL2]	2.42 ± 0.17	2.99 ± 0.41
GLQSYQQALLRISLDKVQRSLGPR [SERTAD3]	2.43 ± 0.27	2.26 ± 0.36
KMRMGGRVDFEEFVELIGPKLREE [CABP4]	3.62 ± 0.11	3.31 ± 0.12
TFDHEHHTTIVATRHYRPPEVILE [CLK3]	3.34 ± 0.19	3.29 ± 0.17
MGEPAGVAGTMESPFSPGLFHRLD [ATF6]	3.58 ± 0.14	3.79 ± 0.36
RNTLNQPCSGSVSLQPRRSIAFRL [GMCL1]	2.41 ± 0.29	2.36 ± 0.11
EKVKKRPGGRPEVIYNYVQRPFIR [BTBD10]	2.9 ± 0.31	2.73 ± 0.63
RSEFTLMAKRIGKDLSNTFAKLEK [STX5]	2.51 ± 0.33	2.31 ± 0.33
VGTGTFGRVHLVKEKTAKHFFALK [PRKX]	2.46 ± 0.15	2.85 ± 0.17
ELLDLKAGGFSIRNQKGEQVFRLA [MYORG]	2.32 ± 0.33	2.24 ± 0.48
SSCYPLIPSTPEEVSADDETPNPP [MAGEA10]	5.46 ± 0.31	5.44 ± 0.27
FMYNLVQFLGFSWIFVNLTVRFCI [HACD3]	3.58 ± 1.3	2.82 ± 0.15
DPAPLWGPPPAQGSPGDGGLQDQV [EMID1]	5.22 ± 0.27	5.2 ± 0.26
LTSLHHFMHSRNLYILGNFMQLKC [PNLIPRP1]	2.89 ± 0.32	2.5 ± 0.35
STVISSMPCLLMELRRDSSESQLA [C18orf25]	3.02 ± 0.13	3.13 ± 0.33
VAVLEQEIKDKDQLVLRTKEAFDT [SASS6]	4.57 ± 0.21	4.67 ± 0.41
NILPNTQKVTCFYQPAPYFAAEAR [TENT5D]	2.49 ± 0.32	2.59 ± 0.23
DEGRLLLEFDLLIFSFGQLPLALV [SOAT2]	3.16 ± 0.11	2.81 ± 0.46
VGLNTIADLWYLFGDLSLSLVTVG [POMT2]	3.71 ± 0.08	3.16 ± 0.79
ILTATVDNANILLQIDNARLAADD [KRT17]	3.29 ± 0.075	3.26 ± 0.19

Sequence	protein stability index (treatment: DMSO)	protein stability index (treatment: MLN4924 1 uM, 8 h)
PTVIRNVGLGTCSMFSRVGGIIAP [SLC22A15]	2.34 ± 0.3	2.23 ± 0.47
WKALSEFALQSDLDQPAFQQLVSF [ISL2]	2.21 ± 0.14	2.31 ± 0.37
HGRIPDPDDFVPPVPPPSYFATFY [FAM189A2]	2.24 ± 0.25	2.23 ± 0.34
KGTENLQRAQAEVLQSVRELSRSR [FCHSD1]	4.61 ± 0.27	4.41 ± 0.38
EVLLGTPYDLAIDMWSLGCILVEM [DYRK1B]	2.79 ± 0.37	2.96 ± 0.51
EITEELPSSQLMPVKKQLQGASWE [ZNF396]	4.09 ± 0.14	4.38 ± 0.22
GSEVVPVISPMYQLHKPLAEGTPR [IKZF1]	3.56 ± 0.16	4.21 ± 0.49
LETEIEALKEELLFMKKNHEEEVK [KRT18]	5.1 ± 0.12	4.98 ± 0.098
VKWLSFHSGYDFGYLIKILTNSNL [CNOT7]	2.58 ± 0.21	2.86 ± 0.69
KHGFSWAVPKFMKRIKVPDYKDRS [DLC1]	2.56 ± 0.08	2.94 ± 0.31
PTRCLPGHKEEEDGEGAGPGEQGG [ESRRA]	5.68 ± 0.3	5.38 ± 0.26
YECNHCGKGFRHSSSLAQHQRKHA [ZNF8]	5.08 ± 0.32	5.12 ± 0.28
HRFVEKPQVFVSNKINAGMYILSP [GMPPB]	2.25 ± 0.21	2.29 ± 0.13
CAIASGSELSESAFGYFITACAVI [SLC29A1]	3.37 ± 0.67	3.12 ± 0.34
LKILKPSIPLERIHFDSYITCVSG [FBXO33]	2.22 ± 0.41	2.23 ± 0.42
YTGRAPNLDKMADNLLAAADKYAL [SPOPL]	2.78 ± 0.42	3.06 ± 0.5
SDDSDEDEPCAISGKWTFQRDSKR [DLC1]	5 ± 0.13	4.83 ± 0.069
QERQMLQALKFLPVPSAPVIDLAE [FSD1]	3.47 ± 0.31	3.3 ± 0.25
SFLRDHSYATEADIISTVEFNHTG [PPP2R2B]	3.65 ± 0.15	3.58 ± 0.19
EPGAGLGIGDMAFEGDMGAAGGDG [PSD2]	5.72 ± 0.23	5.61 ± 0.41
